# Measured values taken from US20240218065A1 (SHENGHE CHINA BIOPHARMACEUTICAL, published 2024).
# Where two headings read alike, the source gives them in different places.
# T1: Human-NKP30-His (Kactus, cat: NKP-HM430) (human, UniProt O14931 19-138, limits assumed)
# T1 construct: also called NKP30 protein; NKP30-his protein; not shown: His tag
# T1 sequence (looked up): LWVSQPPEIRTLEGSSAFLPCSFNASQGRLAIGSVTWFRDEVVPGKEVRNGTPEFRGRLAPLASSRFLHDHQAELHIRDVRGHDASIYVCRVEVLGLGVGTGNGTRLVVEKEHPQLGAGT
# B1: GN15-H (bispecific antibody, human IgG1, kappa)
# light: DVVMTQSPLSLPVTPGEPASISCRSSQSLVHSNRNTYLHWYLQKPGQSPQLLIYKVSNRFSGVPDRFSGSGSGTDFTLKISRVEAEDVGVYYCSQNTHVPPTFGQGTKLEIKRTVAAPSVFIFPPSDEQLKSGTASVVCLLNNFYPREAKVQWKVDNALQSGNSQESVTEQDSKDSTYSLSSTLTLSKADYEKHKVYACEVTHQGLSSPVTKSFNRGEC
# heavy 1: not shown
# heavy 2: QVQLVQSGAEVKKPGASVKVSCKASGYTFTDYEMHWVRQAPGQGLEWMGALDPKTGDTAYSQKFKGRVTLTADKSTSTAYMELSSLTSEDTAVYYCTRFYSYTYWGQGTLVTVSSASTKGPSVFPLAPSSKSTSGGTAALGCLVKDYFPEPVTVSWNSGALTSGVHTFPAVLQSSGLYSLSSVVTVPSSSLGTQTYICNVNHKPSNTKVDKKVEPKSCDKTHTCPPCPGGGGSGGGGSPALLLLLLLRPPATRGITCPPPMSVEHADIWVKSYSLYSRERYICNSGFKRKAGTSSLTECVLNKATNVAHWTTPSLKCIRDPALVHQRPAPPSTVTTAGVTPQPESLSPSGKEGGGGSGGGGSAPELLGGPSVFLFPPKPKDTLMISRTPEVTCVVVDVSHEDPEVKFNWYVDGVEVHNAKTKPREEQYNSTYRVVSVLTVLHQDWLNGKEYKCKVSNKALPAPIEKTISKAKGQPREPQVYTLPPSRDELTKNQVSLTCLVKGFYPSDIAVEWESNGQPENNYKTTPPVLDSDGSFFLASKLTVDKSRWQQGNVFSCSVMHEALHNHYTQKSLSLSPGK
# notes: Trifunctional antibody against GPC-3 and NKP30 with IL-15 and IL-15Rα sushi between CH1 and CH2; also called constructed antibody GN15-H; multifunctional antibody
# B2: GN15-A (bispecific antibody, human IgG1, kappa)
# light: EVQLVESGGGLVQPGGSLRLSCAASGITFSRSVMGWFRQAPGKLRELVAGITSDDNTDYADSVKGRFTISRDNSKNTLYLQMNSLRAEDTAVYYCNILPDSRLGWGQGTLVTVSSGGGGSGGGGSGGGGSDVVMTQSPLSLPVTPGEPASISCRSSQSLVHSNRNTYLHWYLQKPGQSPQLLIYKVSNRFSGVPDRFSGSGSGTDFTLKISRVEAEDVGVYYCSQNTHVPPTFGQGTKLEIKRTVAAPSVFIFPPSDEQLKSGTASVVCLLNNFYPREAKVQWKVDNALQSGNSQESVTEQDSKDSTYSLSSTLTLSKADYEKHKVYACEVTHQGLSSPVTKSFNRGEC
# heavy 1: not shown
# heavy 2: QVQLVQSGAEVKKPGASVKVSCKASGYTFTDYEMHWVRQAPGQGLEWMGALDPKTGDTAYSQKFKGRVTLTADKSTSTAYMELSSLTSEDTAVYYCTRFYSYTYWGQGTLVTVSSASTKGPSVFPLAPSSKSTSGGTAALGCLVKDYFPEPVTVSWNSGALTSGVHTFPAVLQSSGLYSLSSVVTVPSSSLGTQTYICNVNHKPSNTKVDKKVEPKSCDKTHTCPPCPGGGGSGGGGSPALLLLLLLRPPATRGITCPPPMSVEHADIWVKSYSLYSRERYICNSGFKRKAGTSSLTECVLNKATNVAHWTTPSLKCIRDPALVHQRPAPPSTVTTAGVTPQPESLSPSGKEGGGGSGGGGSAPELLGGPSVFLFPPKPKDTLMISRTPEVTCVVVDVSHEDPEVKFNWYVDGVEVHNAKTKPREEQYNSTYRVVSVLTVLHQDWLNGKEYKCKVSNKALPAPIEKTISKAKGQPREPQVYTLPPSRDELTKNQVSLTCLVKGFYPSDIAVEWESNGQPENNYKTTPPVLDSDGSFFLASKLTVDKSRWQQGNVFSCSVMHEALHNHYTQKSLSLSPGK
# notes: Trifunctional antibody against GPC-3 and NKP30 with IL-15 and IL-15Rα sushi between CH1 and CH2 of the two heavy chains; IgG1 knob/hole Fc; also called constructed antibody GN15-A; multifunctional antibody
# B3: NKP30 humanized antibody (antibody, V domains shown)
# VH: EVQLVESGGGLVQPGGSLRLSCAASGITFSRSVMGWFRQAPGKLRELVAGITSDDNTDYADSVKGRFTISRDNSKNTLYLQMNSLRAEDTAVYYCNILPDSRLGWGQGTLVTVSS
# notes: detected with anti-human IgG-Fc
# Columns and labels:
# [1] = biological target: T2, Human-GPC3-His (human, UniProt P51654 25-559, limits assumed); experiment: ELISA: Human-GPC3-His coated at 0.5 µg/mL, antibody titrated 3-fold from 10 µg/mL, HRP goat anti-human IgG-Fc, OD450-OD570
# T2 construct: Coated on the ELISA plate; also called GPC-3 protein; GPC3 protein; not shown: His tag
# Procedure: (§1) Human-GPC3-His was diluted to 0.5 μg/mL with PBS buffer at pH 7.4, added into the 96-well ELISA plate at 100 μL per well, coated overnight at 4° C., and blocked with 1% BSA blocking solution for 1 hour. The plate was washed 3 times with PBST, and the constructed antibody was diluted to 10 μg/mL with 0.5% BSA sample diluent as the starting concentration, and then diluted by 3-fold gradient (11 gradients in total) and incubated at 37° C. for 1 h at 100 μL per well. The plate was washed 3 times with PBST, and then HRP-labelled goat anti-human IgG-Fc was diluted with the sample diluent at 1:20000. 100 μL was added into each well, and incubated at room temperature for 1 hour. A negative control (blank well and IgG1 isotype control) and a positive control were set, and the positive control was a GPC-3 and CD3 bispecial antibody from the literature Hs, A, et al. “Engineering a bispecific antibody with a common light chain: Identification and optimization of an anti-CD3 epsilon and anti-GPC3 bispecific antibody, ERY974.” Methods 154 (2019): 10-20. (The GPC-3 and CD3 bispecial antibody sequence consists of SEQ ID No. 22, SEQ ID No. 23, and SEQ ID No. 24). The plate was washed 4 times with PBST, and 100 μL of TMB substrate was added into each well, and incubated at room temperature without light for 10 minutes. 100 μL of 1 M HCl solution was added into each well to terminate the color development reaction. The absorbance value of each well in the 96-well plate was determined by selecting the wavelength of 450 nm and the reference wavelength of 570 nm on a multifunctional enzyme marker, and the absorbance value (OD)=OD₄₅₀ₙₘ−OD₅₇₀ₙₘ. The logarithm of the concentration of the constructed antibody was taken as the abscissa, and the measured absorbance value of each well was taken as the ordinate, and the Sigmoidaldose-response (Variable Slope) method (GraphPad Prism software, GraphPad Software, San Diego, California) was selected for nonlinear regression to obtain the binding curve of the target antibody to the GPC-3 protein.
# [2] = biological target: T1, Human-NKP30-His (Kactus, cat: NKP-HM430); experiment: ELISA: Human-NKP30-His coated, antibody titrated 3-fold from 10 µg/mL, HRP goat anti-human IgG-Fc, OD450-OD570
# Procedure: (§2) Human-NKP30-His (Kactus, cat: NKP-HM430) was diluted to […] with PBS buffer at pH 7.4, added into the 96-well ELISA plate at 100 μL per well, coated overnight at 4° C., and blocked with 1% BSA blocking solution for 1 hour. The plate was washed 3 times with PBST, and the constructed antibodies were diluted to 10 μg/mL with 0.5% BSA sample diluent as the starting concentration, and then diluted by 3-fold gradient (11 gradients in total). A negative control (blank well and IgG1 isotype control) and a positive control were set, and the positive control was a NKP30 humanized antibody (sequence shown in SEQ ID No. 28), and incubated at 37° C. for 1 h at 100 μL per well. […] The absorbance value of each well in the 96-well plate was determined by selecting the wavelength of 450 nm and the reference wavelength of 570 nm on a multifunctional enzyme marker, and the absorbance value (OD)=OD₄₅₀ₙₘ−OD₅₇₀ₙₘ. The logarithm of the concentration of the constructed antibody was taken as the abscissa, and the measured absorbance value of each well was taken as the ordinate, and the Sigmoidaldose-response (Variable Slope) method (GraphPad Prism software, GraphPad Software, San Diego, California) was selected for nonlinear regression to obtain the binding curve of the target antibody to NKP30.
# [3] = biological target: T1, Human-NKP30-His (Kactus, cat: NKP-HM430); experiment: as above; remark: listed apart in the source
# Procedure: as §2
# [4] = biological target: T2, Human-GPC3-His; experiment: ELISA: Human-GPC3-His coated at 0.5 µg/mL, antibody titrated 3-fold from 10 µg/mL, HRP goat anti-human IgG-Fc, OD450-OD570; remark: listed apart in the source
# Procedure: as §1
# [5] = biological target: T1, Human-NKP30-His (Kactus, cat: NKP-HM430); experiment: ELISA: Human-NKP30-His coated, antibody titrated 3-fold from 10 µg/mL, HRP goat anti-human IgG-Fc, OD450-OD570; remark: listed apart in the source
# Procedure: (§3) Human-NKP30-His (Kactus, cat: NKP-HM430) was diluted to […] with PBS buffer at pH 7.4, added into the 96-well ELISA plate at 100 μL per well, coated overnight at 4° C., and blocked with 1% BSA blocking solution for 1 hour. The plate was washed 3 times with PBST, and the constructed antibodies were diluted to 10 μg/mL with 0.5% BSA sample diluent as the starting concentration, and then diluted by 3-fold gradient (11 gradients in total). A negative control (blank well and IgG1 isotype control) and a positive control were set, and the positive control was a NKP30 humanized antibody (sequence shown in SEQ ID No. 28), and incubated at 37° C. for 1 h at 100 μL per well. The plate was washed 3 times with PBST, and then HRP-labelled goat anti-human IgG-Fc was diluted with the sample diluent at 1:20000. 100 μL was added into each well, and incubated at room temperature for 1 hour. The plate was washed 4 times with PBST, and 100 μL of TMB substrate was added into each well, and incubated at room temperature without light for 10 minutes. 100 μL of 1 M HCl solution was added into each well to terminate the color development reaction. The absorbance value of each well in the 96-well plate was determined by selecting the wavelength of 450 nm and the reference wavelength of 570 nm on a multifunctional enzyme marker, and the absorbance value (OD)=OD₄₅₀ₙₘ−OD₅₇₀ₙₘ. The logarithm of the concentration of the constructed antibody was taken as the abscissa, and the measured absorbance value of each well was taken as the ordinate, and the Sigmoidaldose-response (Variable Slope) method (GraphPad Prism software, GraphPad Software, San Diego, California) was selected for nonlinear regression to obtain the binding curve of the target antibody to NKP30.
# [6] = biological target: T1, Human-NKP30-His (Kactus, cat: NKP-HM430); experiment: as above; remark: listed apart in the source
# Procedure: as §3
# T2 sequence (P51654 25-559 limits assumed): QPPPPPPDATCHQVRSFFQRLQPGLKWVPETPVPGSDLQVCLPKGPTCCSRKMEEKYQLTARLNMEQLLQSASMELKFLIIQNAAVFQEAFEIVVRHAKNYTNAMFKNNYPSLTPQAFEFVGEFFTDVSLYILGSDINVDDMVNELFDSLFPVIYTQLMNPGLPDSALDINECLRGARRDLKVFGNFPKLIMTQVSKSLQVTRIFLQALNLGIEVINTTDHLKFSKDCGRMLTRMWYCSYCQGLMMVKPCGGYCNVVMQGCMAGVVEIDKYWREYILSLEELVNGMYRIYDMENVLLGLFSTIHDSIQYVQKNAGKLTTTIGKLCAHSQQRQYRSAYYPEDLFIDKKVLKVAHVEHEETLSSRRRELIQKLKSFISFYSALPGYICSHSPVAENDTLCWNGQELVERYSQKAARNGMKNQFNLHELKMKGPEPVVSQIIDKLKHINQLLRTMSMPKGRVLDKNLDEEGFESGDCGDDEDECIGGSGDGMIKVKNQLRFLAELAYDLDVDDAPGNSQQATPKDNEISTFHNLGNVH
Binder,EC50 (read off the curve) [1] [µg/mL],EC50 (read off the curve) [2] [µg/mL],EC50 (read off the curve) [3] [µg/mL],EC50 (read off the curve) [4] [µg/mL],EC50 (read off the curve) [5] [µg/mL],EC50 (read off the curve) [6] [µg/mL]
B1,~0.01,~0.06,–,–,–,–
B2,–,–,~0.02,~0.03,–,–
B3,–,~0.03,~0.03,–,~0.03,~0.03
